Source: US20070179113A1, “GM-CSF gene therapy for Crohn's disease using an improved regulated expression system” (Schering Aktiengesellachaft, priority 2005, published 2007)

B1: non-pegylated mGM-CSF: yeast expressed non-pegylated murine GM-CSF protein (protein, UniProt P01587 18-141, looked up)
Granulocyte-macrophage …: APTRSPITVTRPWKHVEAIKEALNLLDDMPVTLNEEVEVVSNEFSFKKLTCVQTRLKIFEQGLRGNFTKLKGALNMTASYYQTYCPPTPETDCETQVTTYADFIDSLKTFLTDIPFECKKPGQK
B2: pegylated mGM-CSF: pegylated murine GM-CSF protein (conjugate, UniProt P01587 18-141, looked up)
Granulocyte-macrophage …: B1 Granulocyte-macrophage …
modifications: PEG
notes: pegylated murine GM-CSF protein

Experiments:
[1] = mGM-CSF concentration in sera at day 8 of the DSS colitis study; details: final day of DSS study
Experimental: At day 8, the final day of the study, mGM-CSF concentrations were measured in sera of all mice.

[2] = test system: DSS-induced colitis in Balb/C mice; assay: DSS-induced colitis model (5% DSS), validation, Disease Activity Index; assay type: in vivo; details: daily treatment, Mesopram/Metronidazole 50 mg/kg IP, mGM-CSF 5 μg non-pegylated, 5 or 10 μg pegylated
Experimental: Disease was induced in BalbC mice (N=10/group) by DSS (5%) applied daily in the drinking water. Mesopram, Metronidazole, or yeast expressed non-pegylated respectively pegylated mGM-CSF, was administered daily over a period of 8 days. Clinical scores (Daily Activity Index (DAI), a cumulative index of: weight loss, stool consistency, and rectal bleeding) were recorded daily.
(§1) Likewise, the DSS-induced mouse colitis model is useful for evaluating therapies for UC, IBD and CD. Disease is induced in mice by daily administration of 5% or 7% dextran sodium sulfate (DSS) in the drinking water over 8 days. Disease progression is monitored by the Daily Activity Index (DAI), a cumulative index of: weight loss, stool consistency, and rectal bleeding, which mimics the symptoms of UC, IBD and/or CD.
vi. DSS-induced colitis model. Prior to the gene delivery study the model was established and validated in Balb/C mice using non-pegylated and pegylated mGM-CSF protein. Disease was induced in Balb/C mice with 5% dextran sodium sulfate (DSS), provided in the drinking water every day over a period of 8 days. As the main endpoint, the Disease Activity Index (DAI, a cumulative index of: weight loss, stool consistency, and rectal bleeding) was recorded daily. […]

[3] = test system: DSS-induced colitis; assay: DSS-induced colitis model (7% DSS), proof of concept with pCMV-GMCSF plasmid DNA; assay type: in vivo, mice; details: plasmid single injection day 0 + EP, drugs and protein daily
Experimental: Two concentrations of pCMV-mGMCSF were tested side by side with a control plasmid (pNull) and two mGM-CSF protein formulations, non-pegylated and pegylated in the DSS-induced colitis model (N=10/group). A single plasmid DNA injection was administered at day 0 followed by electroporation. Murine GM-CSF protein was injected s.c. daily. Disease was induced with 7% DSS in the drinking water and clinical scores (DIA) were recorded daily.
as §1
vii. […] In this study the efficacy of pGMCSF plasmid DNA was evaluated side by side with Mesopram, Metronidazole, non-pegylated or pegylated mGM-CSF. The disease was induced using 7% DSS, administered daily in the drinking water. Mesopram, Metronidazole and mGM-CSF protein were administered daily, using the same dosing regimen as described for the validation study. pGMCSF plasmid DNA was injected at day 0 followed by electroporation. […]

[4] = Pharmacokinetic study of mGM-CSF protein formulations, serum mGM-CSF ELISA; assay type: in vivo, BalbC mice; details: i.m. injection
Experimental: FIG. 40 illustrates the use of ELISA for detection of murine GM-CSF. BalbC mice (n=5/group) were injected i.m. with 5 or 10 μg non-pegylated, or 5 μg pegylated mGM-CSF. Mice received either a single injection or 4 daily injections. Serum was obtained 1, 3, 6, and 12 hours following the single injection or the fourth injection. mGM-CSF levels in serum were measured using the ELISA from R&D (Minneapolis).
i. GM-CSF ELISA validation. A commercially available ELISA (R&D, Minneapolis) was validated for the detection of murine (m)GM-CSF in serum. In a pharmacokinetic study two formulations of mGM-CSF protein, non-pegylated or pegylated, were injectedi.m. and serum samples were assayed for mGM-CSF. […] The levels of non-pegylated mGM-CSF dropped rapidly within 3 hours following administration, whereas pegylated mGM-CSF was detectable over a 12 hour period.

Molecule	GM-CSF in sera at day 8 [1]	DAI score [2]	disease scores (DAI) [3]	time within which serum levels dropped rapidly following administration [4] [h]	period over which detectable in serum [4] [h]
B1	could be measured	significantly reduced	efficacious	≤ 3	
B2		significantly reduced	efficacious		12
